Experimental data from publication PMC8809517, “Cofactor-independent RNA editing by a synthetic S-type PPR protein”.

Assays:
Assay in all cases: high-throughput RNA pulldown from lysate on Ni-NTA beads; HRP: 50 mM Tris pH 8, 150 mM NaCl, 1 mM beta-mercaptoethanol, 50 ug/ml BSA, 3 ug/ml yeast RNA, 0.5% heparin; ITC and FP: Tris pH 8, 200 mM KCl, 5% glycerol; MST: 50 mM Tris pH 8, 200 mM NaCl, 1 mM DTT, BSA, heparin, 0.05% Tween 20
Conditions in all cases: tags: N-terminal His-eGFP
[1] = molecular target: T1, GFP-9S library array, motif 4 ND N98C;D124W (synthetic construct, N98C;D124W)
T1 chain: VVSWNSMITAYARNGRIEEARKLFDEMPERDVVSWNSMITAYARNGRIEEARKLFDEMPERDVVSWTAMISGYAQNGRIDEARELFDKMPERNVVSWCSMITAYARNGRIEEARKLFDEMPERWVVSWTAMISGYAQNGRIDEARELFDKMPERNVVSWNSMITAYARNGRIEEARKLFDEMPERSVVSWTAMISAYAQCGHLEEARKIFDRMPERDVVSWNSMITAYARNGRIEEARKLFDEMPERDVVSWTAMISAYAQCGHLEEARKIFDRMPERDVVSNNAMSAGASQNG

[2] = molecular target: T2, GFP-9S library array, motif 4 ND N98D (synthetic construct, N98D)
T2 chain: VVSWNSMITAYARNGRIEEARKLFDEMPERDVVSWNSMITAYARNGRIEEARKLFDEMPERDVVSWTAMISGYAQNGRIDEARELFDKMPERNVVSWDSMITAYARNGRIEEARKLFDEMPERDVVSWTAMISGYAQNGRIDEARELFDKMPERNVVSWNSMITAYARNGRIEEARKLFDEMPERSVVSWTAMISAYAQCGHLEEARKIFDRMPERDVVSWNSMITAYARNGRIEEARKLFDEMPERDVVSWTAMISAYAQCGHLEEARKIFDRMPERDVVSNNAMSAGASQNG

[3] = molecular target: T3, GFP-9S library array, motif 4 ND N98I;D124T (synthetic construct, N98I;D124T)
T3 chain: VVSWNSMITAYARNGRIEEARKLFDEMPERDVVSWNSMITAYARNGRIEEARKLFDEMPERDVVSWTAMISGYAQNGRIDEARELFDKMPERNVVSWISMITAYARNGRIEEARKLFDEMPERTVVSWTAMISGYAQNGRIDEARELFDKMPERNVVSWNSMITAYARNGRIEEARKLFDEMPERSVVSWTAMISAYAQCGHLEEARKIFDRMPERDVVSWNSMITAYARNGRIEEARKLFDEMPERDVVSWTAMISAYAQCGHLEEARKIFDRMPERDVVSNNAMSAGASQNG

[4] = molecular target: T4, GFP-9S library array, motif 4 ND N98Q;D124G (synthetic construct, N98Q;D124G)
T4 chain: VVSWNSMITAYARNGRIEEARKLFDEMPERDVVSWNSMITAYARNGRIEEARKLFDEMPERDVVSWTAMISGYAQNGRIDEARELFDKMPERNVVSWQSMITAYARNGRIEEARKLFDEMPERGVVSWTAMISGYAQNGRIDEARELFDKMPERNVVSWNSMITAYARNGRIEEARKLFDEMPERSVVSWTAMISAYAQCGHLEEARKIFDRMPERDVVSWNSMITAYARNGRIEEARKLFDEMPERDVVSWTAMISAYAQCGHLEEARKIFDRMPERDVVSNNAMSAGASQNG

[5] = molecular target: T5, GFP-9S library array, motif 4 ND N98C;D124M (synthetic construct, N98C;D124M)
T5 chain: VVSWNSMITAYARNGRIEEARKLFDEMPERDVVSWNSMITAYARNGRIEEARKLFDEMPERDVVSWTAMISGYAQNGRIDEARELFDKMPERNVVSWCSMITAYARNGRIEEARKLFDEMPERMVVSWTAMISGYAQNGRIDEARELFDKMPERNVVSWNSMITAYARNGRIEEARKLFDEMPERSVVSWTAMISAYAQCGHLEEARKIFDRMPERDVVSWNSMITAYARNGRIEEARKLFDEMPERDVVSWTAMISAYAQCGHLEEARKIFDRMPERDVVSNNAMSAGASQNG

Binder | Kd ([1]; label: 5' IRDye 800CW) [nM] | Kd ([2]; label: 5' IRDye 800CW) [nM] | Kd ([3]; label: 5' IRDye 800CW) [nM] | Kd ([4]; label: 5' IRDye 800CW) [nM] | Kd ([5]; label: 5' IRDye 800CW) [nM] | Kd ([1]; label: 5' Cy5) [nM] | Kd ([2]; label: 5' Cy5) [nM] | Kd ([3]; label: 5' Cy5) [nM] | Kd ([4]; label: 5' Cy5) [nM] | Kd ([5]; label: 5' Cy5) [nM]
AUUAUACGUGA (ssRNA) [IR-rpoA-U] | 234 | 315 | 59.1 | 321 | 179 |  |  |  |  | 
AUUAGACGUGA (ssRNA) [Cy5-rpoA-G] |  |  |  |  |  | 84.9 | 55.1 | 145 | 166 | 113
AUUACACGUGA (ssRNA) [Cy5-rpoA] |  |  |  |  |  | 86.1 | 395 | 141 | 154 | 90.5
AUUAAACGUGA (ssRNA) [IR-rpoA-A] | 171 | 531 | 158 | 373 | 266 |  |  |  |  | 
